In assay [1] the target is nucleoprotein of influenza virus A/Beijing/262/95 (H1N1) (influenza A virus A/Beijing/262/95 (H1N1)). As to the kind of experiment: sandwich CLIA, acridinium label M322211, S/N>=2.1.
Assay [2] deals with nucleoprotein of influenza virus A/Panama/2007/99 (H3N2) (influenza A virus A/Panama/2007/99 (H3N2)). As to the kind of experiment: sandwich CLIA, acridinium label M322211, S/N>=2.1.
Assay [3] concerns the target T1, nucleoprotein of influenza virus B/Panama/45/90 (influenza B virus B/Panama/45/90, UniProt O36433 1-560).
T1 sequence: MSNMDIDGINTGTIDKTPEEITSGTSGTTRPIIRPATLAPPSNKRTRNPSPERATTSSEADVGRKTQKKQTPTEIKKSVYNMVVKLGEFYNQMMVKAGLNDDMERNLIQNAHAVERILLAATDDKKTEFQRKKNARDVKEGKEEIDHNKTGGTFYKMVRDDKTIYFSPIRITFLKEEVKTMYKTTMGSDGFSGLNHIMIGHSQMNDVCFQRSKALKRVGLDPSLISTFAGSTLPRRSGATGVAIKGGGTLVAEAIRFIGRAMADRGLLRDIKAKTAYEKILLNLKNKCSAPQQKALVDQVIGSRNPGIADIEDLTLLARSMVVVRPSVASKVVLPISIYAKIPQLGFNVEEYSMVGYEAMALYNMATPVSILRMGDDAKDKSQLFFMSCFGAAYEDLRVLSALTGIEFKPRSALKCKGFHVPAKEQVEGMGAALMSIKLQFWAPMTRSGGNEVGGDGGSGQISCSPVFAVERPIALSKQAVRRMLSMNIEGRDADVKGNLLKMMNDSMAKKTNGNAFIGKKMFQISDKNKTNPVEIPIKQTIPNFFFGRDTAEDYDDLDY
As to the kind of experiment: same-clone sandwich CLIA.

Assay [4] has as its target T2, nucleoprotein of influenza virus B/Ann Arbor/1/86 (viral strain) (influenza B virus B/Ann Arbor/1/86, UniProt P11102 1-560).
T2 sequence: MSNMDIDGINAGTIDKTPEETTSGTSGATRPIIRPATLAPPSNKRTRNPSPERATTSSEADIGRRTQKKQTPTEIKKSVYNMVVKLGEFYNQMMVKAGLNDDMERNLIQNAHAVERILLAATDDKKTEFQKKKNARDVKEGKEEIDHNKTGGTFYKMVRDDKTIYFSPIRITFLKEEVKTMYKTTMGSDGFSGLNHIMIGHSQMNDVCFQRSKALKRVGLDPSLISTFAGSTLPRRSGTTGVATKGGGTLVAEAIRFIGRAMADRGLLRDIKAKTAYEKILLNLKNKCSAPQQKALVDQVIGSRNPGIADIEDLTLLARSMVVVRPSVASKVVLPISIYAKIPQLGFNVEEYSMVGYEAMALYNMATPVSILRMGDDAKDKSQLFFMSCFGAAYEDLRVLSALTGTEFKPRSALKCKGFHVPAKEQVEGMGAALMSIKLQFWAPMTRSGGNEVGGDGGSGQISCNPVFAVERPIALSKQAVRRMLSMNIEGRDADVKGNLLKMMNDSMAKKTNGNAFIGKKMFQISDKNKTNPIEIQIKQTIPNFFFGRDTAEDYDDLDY
The assay is described as follows: same-clone sandwich CLIA.

Assay [5] addresses T3, nucleoprotein of influenza virus B/Singapore/222/79 (influenza B virus B/Singapore/222/79, UniProt P04666 1-560).
T3 sequence: T1 sequence with T22I, T28A, R131K, I406T
The assay is described as follows: same-clone sandwich CLIA.

Assay [6] addresses nucleoprotein of influenza virus A/Beijing/262/95 (H1N1) (influenza A virus A/Beijing/262/95 (H1N1)). As to the kind of experiment: SPR (Biacore 2000), antibody fixed directly on CM5, virus 10 µg/mL. A general note: SPR reads the build-up and loss of mass on a sensor chip optically.
In assay [7] the target is nucleoprotein of influenza virus B/Victoria/504/00 (influenza B virus B/Victoria/504/00). As to the kind of experiment: sandwich CLIA, acridinium label M2110171, S/N>=2.1.
Assay [8] addresses recombinant influenza A virus nucleoprotein (influenza A virus A/Puerto Rico/8/34, UniProt P03466 1-498). As to the kind of experiment: ELISA on coated recombinant nucleoprotein, culture supernatant.
The target of assay [9] is nucleoprotein of influenza virus B/Victoria/504/00 (influenza B virus B/Victoria/504/00). As to the kind of experiment: sandwich CLIA, acridinium label 23G327, S/N>=2.1.
For assay [10] the target is unchanged. As to the kind of experiment: SPR (Biacore 2000), antibody captured by anti-IgG.
Assay [11] concerns the target T1, nucleoprotein of influenza virus …. As to the kind of experiment: same-clone sandwich CLIA. This is another data set of the same source.
The target of assay [12] is T2, nucleoprotein of influenza virus B/Ann …. The assay is described as follows: same-clone sandwich CLIA. This is another data set of the same source.
Assay [13] has as its target T3, nucleoprotein of influenza virus …. As to the kind of experiment: same-clone sandwich CLIA. The source holds these as a separate data set.
For assay [14], the target named is nucleoprotein of influenza virus A/Beijing/262/95 (H1N1) (influenza A virus A/Beijing/262/95 (H1N1)). The assay is described as follows: sandwich CLIA, acridinium label 23G285, S/N>=2.1.
Assay [15] concerns the target nucleoprotein of influenza virus A/Panama/2007/99 (H3N2) (influenza A virus A/Panama/2007/99 (H3N2)). As to the kind of experiment: sandwich CLIA, acridinium label 23G285, S/N>=2.1.

From US20110129816A1 (NATIONAL UNIVERSITY CORPORATION UNIVERSITY OF TOYAMA, published 2011) come the findings set out here.

Positions count from the first letter of the chain named. Read-outs that look alike come from different tables or passages of the source.

Consider “mouse anti-influenza A virus nucleoprotein monoclonal antibody ATCC HB-65”, for which the detection sensitivity in assay [1] and in [2] was 50 ng/mL in each case.

B1: human anti-influenza A virus nucleoprotein monoclonal antibody 23G285 (antibody, V domains shown)
VH: QVQLVQSGGGVVQPGRSLRLSCAASGFTFSRYGMHWVRQAPGKGLEWVAVILYEGINKDYADSVKGRFTISRDNSKNTLYLQMNSLRAEDTAVYYCARDRELRLDYWGQGTLVTVSS
VL: QSVLTQPPSVSGAPGQRVTFSCTGSSSNIGAGYDVNWYQQLPGTAPKVLIYGNTNRPSGVPDRFSASKSGTSASLAITGLQAEDEADYYCQSYDSSLRGYVFGTGTKVSVL
notes: also called 23G285 antibody
Regarding B1, the binding result in assay [3], in assay [4] and in assay [5] was “no binding (tested: S/N<2.1)” in each case.

B2: human anti-influenza A virus nucleoprotein monoclonal antibody 23G447 (antibody, V domains shown)
VH: QVQLQESGPGLVKPSQTLSLTCSVSGGSISNPDHYWNWIRQPPGKGLEWIGYIYYTGRTWYSPSLKSRVSLSVDTSKSQFSLNVDSVIAADTAVYYCARSHVWFGELYWGQGALVTVSS
VL: QSVLTQPPSVSAAPGQKVTISCSGRSSNVGDNYVSWYQQFPGTAPKLLIYDNTKRPSGIPDRFSGSKSGTSATLGITGLQTGDEAAYYCATWDSVLSAGVFGGGTKLTVL
notes: also called 23G447 antibody
B2: the binding result in assay [3], in assay [4] and in assay [5] was “no binding (tested: S/N<2.1)” in each case.

B3: human anti-influenza A virus nucleoprotein monoclonal antibody 23G312 (antibody, V domains shown)
VH: QVQLVQSGGGLVQPGRSLRLSCIASGFSFDDYAMHWVRQIPGKGLEWVSGISWNSGARGYADSVKGRFTISRDNAKNSLYLQMNSLRVGDTAFYYCARDMGAGPNDYDTSGNYPLHLYGMDVWGHGTTVTVSS
VL: EIVLTQSPATLSVSPGDRATLSCRASQSVSDKLAWYQQKPGQAPRLLIYGAYTRATGTPARFSGSGSGTEFTLSITGLQAEDFAIYYCHQYNNWPLTFGGGTKVDIK
notes: also called 23G312 antibody
On to B3, for which the binding result in [3], in assay [4] and in assay [5] was “no binding (tested: S/N<2.1)” each time.

B4: human anti-influenza A virus nucleoprotein monoclonal antibody 23G272 (antibody, V domains shown)
VH: QVQLVQSGAEVKKPGSSVKVSCKATGDTFSSYSISWVRQAPGQGLEWMGRVTPSFGISLYAQKFQGRVTITADRSSSTAYMELNNLTSDDTAVYYCAAGGLVVVVANHWGQGTLVTVSS
VL: EIVLTQSPATLSASVGDRVTITCRASQDITSSLGWYQQRAGEAPKLLLFAASRLESGVPSRFSGSGSGTEYTLTISNLQPEDFATYYCLHYFGSRPWTFGQGTKVEIKR
notes: also called 23G272 antibody
On to B4, for which the binding result in assay [3], in assay [4] and in [5] was “no binding (tested: S/N<2.1)” in each case. Further, the amount of bound antigens relative to HB-65 in assay [6] worked out at 10 fold.

B5: human anti-influenza A virus nucleoprotein monoclonal antibody 23G494 (antibody, V domains shown)
VH: QVQLVQSGGGLVKPGGSLRLSCAGSGFSFSDYYMTWIRQAPGKGLEWVSSINSGSTVTNYADSVQGRFTISRDKNSVYLQMNSLRTEDTAVYYCARDFGIKAGTSDYWGQGTLVTVSS
VL: DIQMTQSPSSLSASVGDRVTITCRASQTISNFLNWYQQKPGKAPKLLIYAASRLQSWVPSRFTGSGSGTDFALTISSLQPEDFATYYCQQTFSPRITFGPGTKVEMKR
notes: also called 23G494 antibody
Regarding B5, the binding result in assay [3], in assay [4] and in assay [5] was “no binding (tested: S/N<2.1)” in each case.

B6: human anti-influenza B virus nucleoprotein monoclonal antibody 23G327 (antibody, V domains shown)
VH: QVQLVQSGAEVKRPGASVKVSCKASGYNLIDFYVNWVRQVPGQGLEWMGYINPDSGGAHYEGKFQGRVIMTRDTSINTAYMELPSLTSDDTAVYFCARGASSGLLTYYYGLDVWGEGTTVIVSS
VL: DIQMTQSPSSLSASIGDRVTITCRASPGINSYLAWYQHKPGKAPKLLIYAASTLQSGVPSRFSGSGSGTDFTLTISSLQPEDVATYYCQKYNSAPWTFGPGTKVEIK
notes: also called 23G327 antibody
B6: the results for the detection sensitivity in [7] and in assay [9] were 31.3 ng/mL and 125 ng/mL, respectively. Moreover, the binding result in [8] is recorded as “no binding”; in assay [11], “binds”; in assay [12] it was “binds”; in assay [13], “binds”. Besides, the reactivity (bound antigen per bound antibody) relative to 41027 in assay [10] stood at 2 fold. Besides, the reactivity (bound antigen per bound antibody) relative to M2110171 in assay [10] was determined as 1.2 fold. The same molecule returned a reactivity (bound antigen per bound antibody) relative to antibody 2/3 in [10] of 0.8 fold.

B7: human anti-influenza A virus nucleoprotein monoclonal antibody 23G268 (antibody, V domains shown)
VH: QVQLVQSGAVVKKPGDSVKVSCKASGYTFTTYWMHWVRQAPGQGPEWMGIVNPTGGTVMYAKKFQGRVIMTRDTSTTTVFLQLNGLESEDTAIYYCARDLGPARVDFDWLSTFVSWGQGTLVTVSS
VL: DIQMTQSPSSLSASVGDRVIITCRASQGITRHLNWYQQKSGKAPKLLIYDASSLQSGVPSRFSGSGSGADFTLTISSVQPEDFATYYCQQSYSNPPTFGPGTKVDIKR
notes: also called 23G268 antibody
Consider B7, for which the binding result in assay [3], in [4] and in [5] was “no binding (tested: S/N<2.1)” throughout. The detection sensitivity in [14] and in [15] was 6.25 ng/mL each time.
